According to publication PMC5745067 (Neuron, 2017):

B1: extracellular domain of rat NLGN2 (Val43-His612, containing the site A insert) (domain or fragment, UniProt Q62888-1 43-612, looked up)
chain: VVNTAYGRVRGVRRELNNEILGPVVQFLGVPYATPPLGARRFQPPEAPASWPGVRNATTLPPACPQNLHGALPAIMLPVWFTDNLEAAATYVQNQSEDCLYLNLYVPTEDGPLTKKRDEATLNPPDTDIRDSGKKPVMLFLHGGSYMEGTGNMFDGSVLAAYGNVIVATLNYRLGVLGFLSTGDQAAKGNYGLLDQIQALRWLSENIAHFGGDPERITIFGSGAGASCVNLLILSHHSEGLFQKAIAQSGTAISSWSVNYQPLKYTRLLAAKVGCDREDSTEAVECLRRKSSRELVDQDVQPARYHIAFGPVVDGDVVPDDPEILMQQGEFLNYDMLIGVNQGEGLKFVEDSAESEDGVSASAFDFTVSNFVDNLYGYPEGKDVLRETIKFMYTDWADRDNGEMRRKTLLALFTDHQWVAPAVATAKLHADYQSPVYFYTFYHHCQAEGRPEWADAAHGDELPYVFGVPMVGATDLFPCNFSKNDVMLSAVVMTYWTNFAKTGDPNQPVPQDTKFIHTKPNRFEEVVWSKFNSKEKQYLHIGLKPRVRDNYRANKVAFWLELVPHLHNLH
B2: MDGA1 C8 (Ig1–Ig2; Y22-T237) (domain or fragment, human, UniProt Q8NFP4-1 22-237, looked up)
chain: YAPAQAQIVHAGQACVVKEDNISERVYTIREGDTLMLQCLVTGHPRPQVRWTKTAGSASDKFQETSVFNETLRIERIARTQGGRYYCKAENGVGVPAIKSIRVDVQYLDEPMLTVHQTVSDVRGNFYQEKTVFLRCTVNSNPPARFIWKRGSDTLSHSQDNGVDIYEPLYTQGETKVLKLKNLRPQDYASYTCQVSVRNVCGIPDKAITFRLTNTT
modifications: TAMRA label ((5/6)-TAMRA-SE) in the FP assays; no label told for the crystals
B3: MDGA1 C4 (Ig1–Ig4; Y22-I433) (domain or fragment, human, UniProt Q8NFP4-1 22-433, looked up)
chain: YAPAQAQIVHAGQACVVKEDNISERVYTIREGDTLMLQCLVTGHPRPQVRWTKTAGSASDKFQETSVFNETLRIERIARTQGGRYYCKAENGVGVPAIKSIRVDVQYLDEPMLTVHQTVSDVRGNFYQEKTVFLRCTVNSNPPARFIWKRGSDTLSHSQDNGVDIYEPLYTQGETKVLKLKNLRPQDYASYTCQVSVRNVCGIPDKAITFRLTNTTAPPALKLSVNETLVVNPGENVTVQCLLTGGDPLPQLQWSHGPGPLPLGALAQGGTLSIPSVQARDSGYYNCTATNNVGNPAKKTVNLLVRSMKNATFQITPDVIKESENIQLGQDLKLSCHVDAVPQEKVTYQWFKNGKPARMSKRLLVTRNDPELPAVTSSLELIDLHFSDYGTYLCMASFPGAPVPDLSVEVNI
modifications: TAMRA label ((5/6)-TAMRA-SE) in the FP assay
B4: MDGA1 C2 (Ig1–Ig3; Y22-K330) (domain or fragment, human, UniProt Q8NFP4-1 22-330, looked up)
chain: YAPAQAQIVHAGQACVVKEDNISERVYTIREGDTLMLQCLVTGHPRPQVRWTKTAGSASDKFQETSVFNETLRIERIARTQGGRYYCKAENGVGVPAIKSIRVDVQYLDEPMLTVHQTVSDVRGNFYQEKTVFLRCTVNSNPPARFIWKRGSDTLSHSQDNGVDIYEPLYTQGETKVLKLKNLRPQDYASYTCQVSVRNVCGIPDKAITFRLTNTTAPPALKLSVNETLVVNPGENVTVQCLLTGGDPLPQLQWSHGPGPLPLGALAQGGTLSIPSVQARDSGYYNCTATNNVGNPAKKTVNLLVRSMK
modifications: TAMRA label ((5/6)-TAMRA-SE) in the FP assay

Key:
neurexin 1β = neurexin 1β (UniProt P58400); experiment: SPR; settings: cited from earlier work
neurexin 1β, sequence (P58400 51-396): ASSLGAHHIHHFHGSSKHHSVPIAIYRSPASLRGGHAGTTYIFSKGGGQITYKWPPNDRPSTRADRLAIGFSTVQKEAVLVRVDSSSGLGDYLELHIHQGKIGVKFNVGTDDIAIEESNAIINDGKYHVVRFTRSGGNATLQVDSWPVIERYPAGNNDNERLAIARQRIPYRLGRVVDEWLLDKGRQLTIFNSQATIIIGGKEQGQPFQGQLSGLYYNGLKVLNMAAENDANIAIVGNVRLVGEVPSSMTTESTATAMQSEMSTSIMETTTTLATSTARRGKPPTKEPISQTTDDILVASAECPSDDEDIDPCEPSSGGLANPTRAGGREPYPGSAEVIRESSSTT

NLGN2-Fc = NLGN2-Fc (UniProt Q8NFZ4); experiment: cell-surface binding assay; settings: cited from earlier work
NLGN2-Fc, sequence (Q8NFZ4 15-677): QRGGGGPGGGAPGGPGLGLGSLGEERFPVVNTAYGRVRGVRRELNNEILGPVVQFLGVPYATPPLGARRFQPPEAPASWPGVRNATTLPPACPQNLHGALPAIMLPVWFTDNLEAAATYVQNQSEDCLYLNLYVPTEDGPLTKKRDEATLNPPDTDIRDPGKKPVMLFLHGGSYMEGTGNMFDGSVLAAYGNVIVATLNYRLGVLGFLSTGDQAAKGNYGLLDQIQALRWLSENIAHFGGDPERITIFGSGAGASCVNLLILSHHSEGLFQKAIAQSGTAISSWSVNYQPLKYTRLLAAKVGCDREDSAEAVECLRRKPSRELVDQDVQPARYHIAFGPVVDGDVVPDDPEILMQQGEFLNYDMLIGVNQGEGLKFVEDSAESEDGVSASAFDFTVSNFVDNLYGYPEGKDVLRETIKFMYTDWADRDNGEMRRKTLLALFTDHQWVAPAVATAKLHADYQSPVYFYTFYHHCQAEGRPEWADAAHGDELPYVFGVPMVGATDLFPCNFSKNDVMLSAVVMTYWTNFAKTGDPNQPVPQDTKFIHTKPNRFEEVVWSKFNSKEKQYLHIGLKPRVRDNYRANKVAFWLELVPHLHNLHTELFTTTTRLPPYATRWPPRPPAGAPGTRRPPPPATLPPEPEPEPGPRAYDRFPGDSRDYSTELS

crystal structure = target: the molecule itself; experiment: crystal structure
[1] = target: B1; experiment: fluorescence polarisation

Molecule: NLGN1 (from UniProt Q62765)
Kd (neurexin 1β): > 10000 nM

Molecule: MDGA2 (from UniProt Q7Z553)
Kd (NLGN2-Fc): 46 nM

Molecule: MDGA1 (from UniProt Q8NFP4)
Kd (NLGN2-Fc): 7 nM

Molecule: B1
stoichiometry N (crystal structure): 2

Molecule: B2
Kd [1]: 21 nM

Molecule: B3
binding result [1]: binds

Molecule: B4
binding result [1]: binds
